In this data set the target is hSpt5 KOW4 (S522-G647) (Homo sapiens, UniProt O00267 522-647). The data set can be described thus: fluorescence anisotropy; 50 nM nucleic acid; Fluorescence anisotropy: 25 mM Tris/HCl pH 7.0, 50 mM NaCl, 25 C (buffer printed for duplex annealing, named fluorescence buffer); NMR with Rpb4/7 (Fig 7): 50 mM Na phosphate pH 7.0, 50 mM NaCl, 1 mM DTT, 298 K. The note with it: protein: recombinant, tags: His6-GB1 removed by TEV. Background: Fluorescence polarisation rises when a labelled molecule tumbles more slowly, as on binding a larger partner.

[1] abbreviates: label: 5' 6-FAM on strand 1, blunt.

In PMC6076269, “Structure and nucleic acid binding properties of KOW domains 4 and 6–7 of human transcription elongation factor DSIF” one finds Kd data, which are given here for five molecules.

B1: ssDNA1 (ssDNA)
DNA: CTTATTGAATTA
What is called Kd is the equilibrium constant for the complex coming apart. As to B1, the equilibrium dissociation constant (Kd) (label: 5' 6-FAM) is 12.2 ± 0.6 µM.

B2: dsDNA1 (dsDNA)
DNA 1: CTTATTGAATTA
DNA 2: TAATTCAATAAG
As for B2, under setting [1], the Kd is 20.1 ± 0.4 µM.

B3: ssDNA2 (ssDNA)
DNA: GAAAATTGGGTAAG
For B3, the Kd (label: 5' 6-FAM) was 24.5 ± 3.2 µM.

B4: ssRNA (ssRNA)
RNA: GGCGGUAGCGUG
With B4, the Kd (label: 5' 6-FAM) came out at 39.5 ± 7.4 µM.

B5: dsDNA2 (dsDNA)
DNA 1: GAAAATTGGGTAAG
DNA 2: CTTACCCAATTTTC
Take B5: the Kd under setting [1] came out at 41.2 ± 9 µM.
